In patent US20240368285A1 (HEFEI TG IMMUNOPHARMA, published 2024):

Experiments:
[1] = target: T1, MICA protein (SPR analyte) (human, UniProt Q29983 24-308, limits assumed); experiment: SPR, Biacore 8K, antibody captured on protein A chip, MICA as analyte
T1 construct: also called major histocompatibility complex class I chain related polypeptide A
T1 sequence: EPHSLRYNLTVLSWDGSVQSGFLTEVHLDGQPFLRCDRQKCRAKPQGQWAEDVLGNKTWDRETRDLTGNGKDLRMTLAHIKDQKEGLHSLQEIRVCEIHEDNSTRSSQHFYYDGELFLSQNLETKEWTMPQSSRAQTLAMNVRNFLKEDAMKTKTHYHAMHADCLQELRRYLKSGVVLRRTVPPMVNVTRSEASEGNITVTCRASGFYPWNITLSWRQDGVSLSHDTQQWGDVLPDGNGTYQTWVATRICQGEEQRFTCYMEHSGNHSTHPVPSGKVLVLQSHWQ
Procedure: In a Biacore 8K (Cytiva) system, the antibody was diluted to a concentration of 10 µg/mL with running buffer (HBS-EP), and the antibody was conjugated onto a protein A (Cytiva, 29127556) chip at a flow rate of […].
Kinetic and affinity data of binding of the maternal antibody h5A1 and the affinity maturation antibody h5A1002 and MICA were detected.

[2] = target: T2, MICA002α3-Fc (human); experiment: ELISA on coated MICA*002 α3-Fc (1 µg/ml), HRP anti-human Fab secondary, OD450
T2 construct: Produced in the Applicant's laboratory; also called MICA*002-Fc; domain α3 of MICA-002 Fc fusion protein
T2 sequence (chain, as listed by the source limits assumed): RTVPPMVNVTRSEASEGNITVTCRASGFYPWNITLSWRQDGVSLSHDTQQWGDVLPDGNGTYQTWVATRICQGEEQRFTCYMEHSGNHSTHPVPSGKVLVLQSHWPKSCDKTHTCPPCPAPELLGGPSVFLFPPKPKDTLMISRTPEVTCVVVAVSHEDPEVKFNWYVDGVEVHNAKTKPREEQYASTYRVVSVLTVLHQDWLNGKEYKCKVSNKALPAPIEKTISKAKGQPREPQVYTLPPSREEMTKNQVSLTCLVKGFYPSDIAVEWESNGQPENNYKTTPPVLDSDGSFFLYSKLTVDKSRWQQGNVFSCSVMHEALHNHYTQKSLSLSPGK
Procedure: (§1) After the antibodies were added, signal intensity was used for judging the binding characteristics of the antibodies and MICA and MICB.
(§2) The fusion proteins (produced in the Applicant's laboratory; an amino acid sequence of MICA002α3-Fc is as set forth in SEQ ID NO: 22; an amino acid sequence of MICA005α3-Fc is as set forth in SEQ ID NO: 24; an amino acid sequence of MICA008α3-Fc is as set forth in SEQ ID NO: 25; an amino acid sequence of MICA004α3-Fc is as set forth in SEQ ID NO: 23; an amino acid sequence of MICB001α3-Fc is as set forth in SEQ ID NO: 26; and an amino acid sequence of MICB005α3-Fc is as set forth in SEQ ID NO: 27) were diluted to a concentration of 1 μg/ml with PBS and then added into a 96-well plate in a volume of 100 μl/well. The plate was placed at 4° C. overnight. The PBS in the 96-well plate was removed by sucking. After the plate was washed with PBST (that is, PBS having a pH value of 7.2 included 0.1 volume % of Tween 20) for 6 times, PBS containing 10% of BSA was added in a volume of 200 μl/well. The plate was incubated at 37° C. for 2 hours for blocking. The blocking solution was removed. […]

[3] = target: T3, MICA005α3-Fc (human); experiment: ELISA on coated MICA*005 α3-Fc (1 µg/ml), HRP anti-human Fab secondary, OD450
T3 construct: also called MICA*005-Fc; domain α3 of MICA-005 Fc fusion protein
T3 sequence (chain, as listed by the source limits assumed): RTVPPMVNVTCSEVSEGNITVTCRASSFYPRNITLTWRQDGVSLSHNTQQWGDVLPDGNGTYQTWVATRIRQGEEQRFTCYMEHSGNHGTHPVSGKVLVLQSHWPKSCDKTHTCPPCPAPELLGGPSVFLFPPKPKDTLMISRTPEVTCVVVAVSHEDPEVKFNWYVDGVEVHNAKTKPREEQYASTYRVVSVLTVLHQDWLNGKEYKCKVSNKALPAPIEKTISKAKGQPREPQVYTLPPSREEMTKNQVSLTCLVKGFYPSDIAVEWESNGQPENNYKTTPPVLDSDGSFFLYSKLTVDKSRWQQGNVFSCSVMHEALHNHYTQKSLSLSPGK
Procedure: as §1, §2

[4] = target: T4, MICA008α3-Fc (human); experiment: ELISA on coated MICA*008 α3-Fc (1 µg/ml), HRP anti-human Fab secondary, OD450
T4 construct: also called MICA*008-Fc; domain α3 of MICA-008 Fc fusion protein
T4 sequence (chain, as listed by the source limits assumed): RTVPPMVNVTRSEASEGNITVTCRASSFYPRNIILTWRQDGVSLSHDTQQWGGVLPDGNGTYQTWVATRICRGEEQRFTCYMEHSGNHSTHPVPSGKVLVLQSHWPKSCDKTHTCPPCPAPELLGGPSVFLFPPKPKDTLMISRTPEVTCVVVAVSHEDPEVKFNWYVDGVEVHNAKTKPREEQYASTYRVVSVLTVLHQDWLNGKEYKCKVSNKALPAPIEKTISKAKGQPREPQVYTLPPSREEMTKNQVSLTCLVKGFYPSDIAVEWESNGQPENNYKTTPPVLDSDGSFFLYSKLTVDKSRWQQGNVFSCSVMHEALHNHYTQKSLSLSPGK
Procedure: as §1, §2

[5] = target: T5, MICA004α3-Fc (human); experiment: ELISA on coated MICA*004 α3-Fc (1 µg/ml), HRP anti-human Fab secondary, OD450
T5 construct: also called MICA*004-Fc; domain α3 of MICA-004 Fc fusion protein
T5 sequence (chain, as listed by the source limits assumed): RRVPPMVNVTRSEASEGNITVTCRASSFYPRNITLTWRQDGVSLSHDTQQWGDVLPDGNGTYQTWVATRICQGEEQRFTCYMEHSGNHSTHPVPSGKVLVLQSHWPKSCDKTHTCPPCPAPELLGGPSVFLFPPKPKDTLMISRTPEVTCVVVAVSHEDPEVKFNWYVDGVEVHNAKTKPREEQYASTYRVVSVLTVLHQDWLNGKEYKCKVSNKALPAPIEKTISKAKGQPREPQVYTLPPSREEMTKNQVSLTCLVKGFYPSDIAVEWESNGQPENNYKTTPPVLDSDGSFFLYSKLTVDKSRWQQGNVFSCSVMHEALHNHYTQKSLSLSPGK
Procedure: as §1, §2

[6] = target: T6, MICB001α3-Fc; experiment: ELISA on coated MICB*001 α3-Fc (1 µg/ml), HRP anti-human Fab secondary, OD450
T6 construct: also called MICB*001-Fc; domain α3 of MICB-001 Fc fusion protein
T6 sequence (chain, as listed by the source limits assumed): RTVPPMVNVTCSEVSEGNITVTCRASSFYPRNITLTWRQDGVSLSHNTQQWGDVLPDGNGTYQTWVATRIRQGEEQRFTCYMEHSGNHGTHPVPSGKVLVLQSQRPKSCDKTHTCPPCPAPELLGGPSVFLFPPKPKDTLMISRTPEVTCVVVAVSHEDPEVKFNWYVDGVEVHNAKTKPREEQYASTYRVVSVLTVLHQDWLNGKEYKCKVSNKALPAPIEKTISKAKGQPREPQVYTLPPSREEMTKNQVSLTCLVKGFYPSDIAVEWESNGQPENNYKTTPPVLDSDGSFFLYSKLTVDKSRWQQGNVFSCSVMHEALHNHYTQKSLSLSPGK
Procedure: as §1, §2

[7] = target: T7, MICB005α3-Fc; experiment: ELISA on coated MICB*005 α3-Fc (1 µg/ml), HRP anti-human Fab secondary, OD450
T7 construct: also called MICB*005-Fc; domain α3 of MICB-005 Fc fusion protein
T7 sequence (chain, as listed by the source limits assumed): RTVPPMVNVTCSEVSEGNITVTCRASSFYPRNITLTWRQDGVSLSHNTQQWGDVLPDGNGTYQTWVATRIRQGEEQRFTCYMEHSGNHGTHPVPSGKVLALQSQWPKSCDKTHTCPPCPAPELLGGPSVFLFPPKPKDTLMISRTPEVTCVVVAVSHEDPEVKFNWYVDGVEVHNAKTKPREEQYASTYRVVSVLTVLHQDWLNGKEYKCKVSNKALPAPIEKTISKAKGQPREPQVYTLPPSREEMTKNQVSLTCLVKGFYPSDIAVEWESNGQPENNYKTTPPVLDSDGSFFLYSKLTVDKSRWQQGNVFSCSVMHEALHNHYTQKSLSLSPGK
Procedure: as §1, §2

[8] = target: T8, MICA on human tumor cells (A-375, A549, HCT-15, MDA-MB-231) (human, UniProt Q29983 24-383); experiment: flow cytometry on HCT-15 cells, Alexa-647 goat anti-human secondary, average fluorescence intensity
T8 construct: whole, on cells
T8 sequence (looked up): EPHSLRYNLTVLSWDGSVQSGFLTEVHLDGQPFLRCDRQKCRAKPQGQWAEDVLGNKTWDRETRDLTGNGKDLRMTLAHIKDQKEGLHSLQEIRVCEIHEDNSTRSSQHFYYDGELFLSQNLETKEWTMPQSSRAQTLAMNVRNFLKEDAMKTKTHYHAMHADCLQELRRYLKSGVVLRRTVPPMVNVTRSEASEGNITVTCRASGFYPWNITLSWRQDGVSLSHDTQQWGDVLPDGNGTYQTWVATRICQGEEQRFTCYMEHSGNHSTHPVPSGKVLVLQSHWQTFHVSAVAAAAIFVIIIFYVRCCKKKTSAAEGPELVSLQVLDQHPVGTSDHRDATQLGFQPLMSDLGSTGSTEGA
Procedure: (1) Tumor cells were diluted to a density of 2×10⁶/mL with PBS and then added into a 1.5 ml EP tube in a volume of 100 l/tube. 10 l/tube of goat serum was added into the EP tube; and blocking was conducted at 4° C. for 30 min. Antibody h5A1 (having a heavy chain sequence as set forth in SEQ ID NO: 11 and a light chain sequence as set forth in SEQ ID NO: 12), antibody h5A1002 (having a heavy chain sequence as set forth in SEQ ID NO: 13 and a light chain sequence as set forth in SEQ ID NO: 14), and control IgG1 (purchased from Biointron) were gradient-diluted (at a highest working concentration of 50 μg/ml, 10 gradients, diluted by 3 times for each gradient) and added. The tube was incubated at 4° C. for 30 min. 1 mL of PBS was added into the EP tube, and centrifugation was conducted 4° C. at a rate of 3,500 rpm for 5 min. The supernatant was removed. The EP tube was washed once with the PBS. The supernatant was removed after centrifugation. The cells were resuspended with PBS in a volume of 100 l/tube. An Alexa-647 labeled goat anti-human secondary antibody (purchased from Jackson lab) was added into the tube in a volume of 1 l/tube; and the plate was incubated in the dark at 4° C. for 30 min. The tube was washed twice with PBS, and the supernatant was removed after centrifugation. […]

B1: maternal humanized antibody h5A1 (antibody, human IgG1, kappa, V domains shown)
VH: QVQLQESGPGLVKPSETLSLTCTVSGFSLTTYGVHWIRQPPGKGLEWIGMIWTDGTTDYNAAFISRVTISVDTSKNQFSLKLSSVTAADTAVYYCARKGHGYYYAMDYWGQGTLVTVSS
VL: EIVLTQSPGTLSLSPGERATLSCTASSSVSSSYLHWYQQKPGQAPRLLIYSTSNLASGIPDRFSGSGSGTDFTLTISRLEPEDFAVYYCHQYHRSPFTFGQGTKLEIKR
notes: Human IgG1, kappa; The full chains are stated for the ELISA and flow cytometry; also called h5A1-hIgG1; maternal antibody h5A1
Kd [1]: 215 nM | koff [1]: 0.000641 s⁻¹ | kon [1]: 2970 M⁻¹ s⁻¹ | EC50 (read off the curve) [2]: ~0.3 µg/mL | EC50 (read off the curve) [3]: ~0.4 µg/mL | binding result [4]: binds | EC50 (read off the curve) [5]: ~0.07 µg/mL | EC50 (read off the curve) [6]: ~0.07 µg/mL | EC50 (read off the curve) [7]: ~0.05 µg/mL | EC50 (read off the curve) [8]: ~3 µg/mL
